Measurements from doi:10.1101/2021.10.31.466654.

Legend:
[1] = target: recombinant NKp46 (Raman spectroscopy) (UniProt O76036); assay: Raman spectroscopy
[2] = target: Myc-tagged extracellular domain of NKp46 (human) (UniProt O76036); assay: MST

UniProt O76036, sequence (O76036 22-258): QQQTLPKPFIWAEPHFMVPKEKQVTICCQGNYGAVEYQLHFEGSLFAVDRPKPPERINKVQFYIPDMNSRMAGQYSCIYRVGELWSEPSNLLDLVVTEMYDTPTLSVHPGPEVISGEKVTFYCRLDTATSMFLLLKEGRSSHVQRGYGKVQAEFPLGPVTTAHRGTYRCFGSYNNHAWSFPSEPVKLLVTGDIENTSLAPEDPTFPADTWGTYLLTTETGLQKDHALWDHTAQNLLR

Kd [1] | Kd [2] | Substance
9.95 µM | – | recombinant CRT (Raman spectroscopy) (from UniProt P27797 18-417) (natural protein)
– | 41.2 µM | CRT P domain fused at the C-terminus to the Fc domain of human Ig (Fc fusion)
